Source: patent US20170209564A1

What was measured:
70F6 = experiment: ELISA, coated CR6261, P. pastoris medium; details: remark: other sources report otherwise
58A11 = experiment: ELISA, coated CR6261, P. pastoris medium; details: remark: other sources report otherwise
78F11 = experiment: ELISA, coated CR6261, P. pastoris medium; details: remark: other sources report otherwise
74H9 = experiment: ELISA, coated CR6261, P. pastoris medium; details: remark: other sources report otherwise
2D9 = experiment: ELISA, coated CR6261, P. pastoris medium; details: remark: other sources report otherwise
71D3 = experiment: ELISA, coated CR6261, P. pastoris medium; details: remark: other sources report otherwise
9C6 = experiment: ELISA, coated CR6261, P. pastoris medium; details: remark: other sources report otherwise
48D11 = experiment: ELISA, coated CR6261, P. pastoris medium; details: remark: other sources report otherwise
66C8 = experiment: ELISA, coated CR6261, P. pastoris medium; details: remark: other sources report otherwise
58A5 = experiment: ELISA, coated CR6261, P. pastoris medium; details: remark: other sources report otherwise
10F9 = experiment: ELISA, coated CR6261, P. pastoris medium; details: remark: other sources report otherwise
90A9 = experiment: ELISA, coated CR6261, P. pastoris medium; details: remark: other sources report otherwise
63C3 = experiment: ELISA, coated CR6261, P. pastoris medium; details: remark: other sources report otherwise
85A7 = experiment: ELISA, coated CR6261, P. pastoris medium
97G10 = experiment: ELISA, coated CR6261, P. pastoris medium; details: remark: other sources report otherwise
84E10 = experiment: ELISA, coated CR6261, P. pastoris medium; details: remark: other sources report otherwise
8A10 = experiment: ELISA, coated CR6261, P. pastoris medium; details: remark: other sources report otherwise
71H2 = experiment: ELISA, coated CR6261, P. pastoris medium; details: remark: other sources report otherwise
53G10 = experiment: ELISA, coated CR6261, P. pastoris medium; details: remark: other sources report otherwise
11B4 = experiment: ELISA, coated CR6261, P. pastoris medium; details: remark: other sources report otherwise
75E9 = experiment: ELISA, coated CR6261, P. pastoris medium; details: remark: other sources report otherwise
11H6 = experiment: ELISA, coated CR6261, P. pastoris medium; details: remark: other sources report otherwise
91F10 = experiment: ELISA, coated CR6261, P. pastoris medium; details: remark: other sources report otherwise
9C10 = experiment: ELISA, coated CR6261, P. pastoris medium; details: remark: other sources report otherwise
76D10 = experiment: ELISA, coated CR6261, P. pastoris medium; details: remark: other sources report otherwise
74D7 = experiment: ELISA, coated CR6261, P. pastoris medium; details: remark: other sources report otherwise
55H2 = experiment: ELISA, coated CR6261, P. pastoris medium; details: remark: other sources report otherwise
8D7 = experiment: ELISA, coated CR6261, P. pastoris medium; details: remark: other sources report otherwise
91C8 = experiment: ELISA, coated CR6261, P. pastoris medium; details: remark: other sources report otherwise
69G8 = experiment: ELISA, coated CR6261, P. pastoris medium; details: remark: other sources report otherwise
7D9 = experiment: ELISA, coated CR6261, P. pastoris medium; details: remark: other sources report otherwise
1F2 = experiment: ELISA, coated CR6261, P. pastoris medium; details: remark: other sources report otherwise
58C8 = experiment: ELISA, coated CR6261, P. pastoris medium; details: remark: other sources report otherwise
86B3 = experiment: ELISA, coated CR6261, P. pastoris medium; details: remark: other sources report otherwise
36E4 = experiment: ELISA, coated CR6261, P. pastoris medium; details: remark: other sources report otherwise
56F8 = experiment: ELISA, coated CR6261, P. pastoris medium; details: remark: other sources report otherwise
86G3 = experiment: ELISA, coated CR6261, P. pastoris medium; details: remark: other sources report otherwise
35H3 = experiment: ELISA, coated CR6261, P. pastoris medium; details: remark: other sources report otherwise
50G10 = experiment: ELISA, coated CR6261, P. pastoris medium; details: remark: other sources report otherwise
51G3 = experiment: ELISA, coated CR6261, P. pastoris medium; details: remark: other sources report otherwise
86F1 = experiment: ELISA, coated CR6261, P. pastoris medium; details: remark: other sources report otherwise
78G2 = experiment: ELISA, coated CR6261, P. pastoris medium; details: remark: other sources report otherwise
56F4 = experiment: ELISA, coated CR6261, P. pastoris medium; details: remark: other sources report otherwise
4C1 = experiment: ELISA, coated CR6261, P. pastoris medium; details: remark: other sources report otherwise
12C6 = experiment: ELISA, coated CR6261, P. pastoris medium; details: remark: other sources report otherwise
48B11 = experiment: ELISA, coated CR6261, P. pastoris medium; details: remark: other sources report otherwise
[1] = biological target: H1-mini2-cluster1+5+6-GCN4 without leader sequence and with FLAG-thrombin-foldon-HIS; experiment: ELISA signal over HTRF expression signal, HEK293F; average of the parental; details: remark: other sources report otherwise

B1: CR6261 (antibody, V domains shown)
VH: EVQLVESGAEVKKPGSSVKVSCKASGGPFRSYAISWVRQAPGQGPEWMGGIIPIFGTTKYAPKFQGRVTITADDFAGTVYMELSSLRSEDTAMYYCAKHMGYQVRETMDVWGKGTTVTVSS
VL: QSVLTQPPSVSAAPGQKVTISCSGSSSNIGNDYVSWYQQLPGTAPKLLIYDNNKRPSGIPDRFSGSKSGTSATLGITGLQTGDEANYYCATWDRRPTAYVVFGGGTKLTVLG
Work on B1 yielded a CR6261 binding signal (70F6) of 419000, a CR6261 binding signal (58A11) of 53300 and a CR6261 binding signal (78F11) of 84100. The CR6261 binding signal (74H9) was 1.28e+06, the CR6261 binding signal (2D9) was 316000 and the CR6261 binding signal (71D3) was 1.57e+06. It also gave a CR6261 binding signal (9C6) of 271000, a CR6261 binding signal (48D11) of 121000 and a CR6261 binding signal (66C8) of 185000. The CR6261 binding signal (58A5) was 90700, the CR6261 binding signal (10F9) was 166000 and the CR6261 binding signal (90A9) was 414000. It also gave a CR6261 binding signal (63C3) of 188000, a CR6261 binding signal (85A7) of 236000 and a CR6261 binding signal (97G10) of 253000. The CR6261 binding signal (84E10) was 255000, the CR6261 binding signal (8A10) was 360000 and the CR6261 binding signal (71H2) was 1.11e+06. For the same binder, the CR6261 binding signal (53G10) was 108000, the CR6261 binding signal (11B4) was 166000 and the CR6261 binding signal (75E9) was 135000. For the same binder, the CR6261 binding signal (11H6) was 427000, the CR6261 binding signal (91F10) was 14800 and the CR6261 binding signal (9C10) was 114000. It also gave a CR6261 binding signal (76D10) of 114000, a CR6261 binding signal (74D7) of 359000 and a CR6261 binding signal (55H2) of 58100. The CR6261 binding signal (8D7) was 73400, the CR6261 binding signal (91C8) was 334000 and the CR6261 binding signal (69G8) was 481000. It also gave a CR6261 binding signal (7D9) of 77800, a CR6261 binding signal (1F2) of 149000 and a CR6261 binding signal (58C8) of 277000. It also gave a CR6261 binding signal (86B3) of 901000, a CR6261 binding signal (36E4) of 196000 and a CR6261 binding signal (56F8) of 235000. For the same binder, the CR6261 binding signal (86G3) was 184000, the CR6261 binding signal (35H3) was 106000 and the CR6261 binding signal (50G10) was 264000. The CR6261 binding signal (51G3) was 460000, the CR6261 binding signal (86F1) was 159000 and the CR6261 binding signal (78G2) was 56700. For the same binder, the CR6261 binding signal (56F4) was 186000, the CR6261 binding signal (4C1) was 386000 and the CR6261 binding signal (12C6) was 289000. For the same binder, the CR6261 binding signal (48B11) was 303000 and the ratio (binding signal/HTRF signal) [1] was 17.4.
